Data taken from publication doi:10.1101/494930 (bioRxiv, 2018).
Where “and” joins values, the source holds several entries; their conditions need not be identical. Equal values may be shown once.

B1: WT-HYPE (aa 102-458) (enzyme)
chain: GKLEARAALNQALEMKRQGKREKAQKLFMHALKMDPDFVDALTEFGIFSEEDKDIIQADYLYTRALTISPYHEKALVNRDRTLPLVEEIDQRYFSIIDSKVKKVMSIPKGNSALRRVMEETYYHHIYHTVAIEGNTLTLSEIRHILETRYAVPGKSLEEQNEVIGMHAAMKYINTTLVSRIGSVTISDVLEIHRRVLGYVDPVEAGRFRTTQVLVGHHIPPHPQDVEKQMQEFVQWLNSEEAMNLHPVEFAALAHYKLVYIHPFIDGNGRTSRLLMNLILMQAGYPPITIRKEQRSDYYHVLEAANEGDVRPFIRFIAKCTETTLDTLLFATTEYSVALPEAQPNHSGFKETLPVKP

Legend:
Assay in all cases: BLI
[1] = target: BiP-His6 (WT-BiP, aa 19-637) (human, UniProt P11021 19-637)
Chain of BiP-His6 (WT-BiP, aa 19-637) (P11021 19-637): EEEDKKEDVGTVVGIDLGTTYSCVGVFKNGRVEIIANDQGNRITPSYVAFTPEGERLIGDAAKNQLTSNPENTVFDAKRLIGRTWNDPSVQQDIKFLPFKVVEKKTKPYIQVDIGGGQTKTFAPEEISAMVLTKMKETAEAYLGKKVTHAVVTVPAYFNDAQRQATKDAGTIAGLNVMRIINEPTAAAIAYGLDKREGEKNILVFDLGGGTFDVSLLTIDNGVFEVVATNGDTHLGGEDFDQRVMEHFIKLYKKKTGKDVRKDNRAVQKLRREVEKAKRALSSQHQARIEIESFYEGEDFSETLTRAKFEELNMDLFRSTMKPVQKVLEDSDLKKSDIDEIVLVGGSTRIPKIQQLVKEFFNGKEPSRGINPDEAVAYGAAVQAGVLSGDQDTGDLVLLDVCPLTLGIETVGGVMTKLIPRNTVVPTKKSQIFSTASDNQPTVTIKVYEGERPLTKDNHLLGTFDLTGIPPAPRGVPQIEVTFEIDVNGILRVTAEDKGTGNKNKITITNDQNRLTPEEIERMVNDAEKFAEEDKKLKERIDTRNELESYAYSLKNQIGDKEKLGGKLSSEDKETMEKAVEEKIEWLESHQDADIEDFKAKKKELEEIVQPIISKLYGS

His6-BiP NBD (aa 28-405) = His6-BiP NBD (aa 28-405) (human, UniProt P11021 28-405)
Chain of His6-BiP NBD (aa 28-405) (P11021 28-405): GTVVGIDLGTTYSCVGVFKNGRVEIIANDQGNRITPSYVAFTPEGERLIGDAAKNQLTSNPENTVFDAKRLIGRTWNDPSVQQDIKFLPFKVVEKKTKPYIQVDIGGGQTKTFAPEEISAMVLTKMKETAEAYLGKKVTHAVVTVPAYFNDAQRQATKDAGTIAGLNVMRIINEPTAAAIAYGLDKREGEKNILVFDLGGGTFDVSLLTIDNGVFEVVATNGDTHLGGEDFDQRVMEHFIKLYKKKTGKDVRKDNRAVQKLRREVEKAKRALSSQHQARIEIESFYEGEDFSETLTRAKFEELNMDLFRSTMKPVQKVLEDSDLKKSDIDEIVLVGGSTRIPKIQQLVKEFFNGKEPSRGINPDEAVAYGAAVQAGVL

WT-HYPE (aa 102-458) = target: B1

| Kd [1] | Kd (His6-BiP NBD (aa 28-405)) [µM] | Kd (WT-HYPE (aa 102-458)) [µM] | Binder |
| --- | --- | --- | --- |
| 4.5 µM and 6.1 µM | 3.16 | – | B1 |
| – | – | 6.85 | His6-BiP SBD (aa 418-637) (domain or fragment) not shown |
